Data reported in US20240376455.

Assays:
Assay in all cases: cleavage_in_vitro
[1] = test system: T1, LPG10146 (Bifidobacterium thermacidophilum); settings: PAM SEQ ID 79
T1 sequence: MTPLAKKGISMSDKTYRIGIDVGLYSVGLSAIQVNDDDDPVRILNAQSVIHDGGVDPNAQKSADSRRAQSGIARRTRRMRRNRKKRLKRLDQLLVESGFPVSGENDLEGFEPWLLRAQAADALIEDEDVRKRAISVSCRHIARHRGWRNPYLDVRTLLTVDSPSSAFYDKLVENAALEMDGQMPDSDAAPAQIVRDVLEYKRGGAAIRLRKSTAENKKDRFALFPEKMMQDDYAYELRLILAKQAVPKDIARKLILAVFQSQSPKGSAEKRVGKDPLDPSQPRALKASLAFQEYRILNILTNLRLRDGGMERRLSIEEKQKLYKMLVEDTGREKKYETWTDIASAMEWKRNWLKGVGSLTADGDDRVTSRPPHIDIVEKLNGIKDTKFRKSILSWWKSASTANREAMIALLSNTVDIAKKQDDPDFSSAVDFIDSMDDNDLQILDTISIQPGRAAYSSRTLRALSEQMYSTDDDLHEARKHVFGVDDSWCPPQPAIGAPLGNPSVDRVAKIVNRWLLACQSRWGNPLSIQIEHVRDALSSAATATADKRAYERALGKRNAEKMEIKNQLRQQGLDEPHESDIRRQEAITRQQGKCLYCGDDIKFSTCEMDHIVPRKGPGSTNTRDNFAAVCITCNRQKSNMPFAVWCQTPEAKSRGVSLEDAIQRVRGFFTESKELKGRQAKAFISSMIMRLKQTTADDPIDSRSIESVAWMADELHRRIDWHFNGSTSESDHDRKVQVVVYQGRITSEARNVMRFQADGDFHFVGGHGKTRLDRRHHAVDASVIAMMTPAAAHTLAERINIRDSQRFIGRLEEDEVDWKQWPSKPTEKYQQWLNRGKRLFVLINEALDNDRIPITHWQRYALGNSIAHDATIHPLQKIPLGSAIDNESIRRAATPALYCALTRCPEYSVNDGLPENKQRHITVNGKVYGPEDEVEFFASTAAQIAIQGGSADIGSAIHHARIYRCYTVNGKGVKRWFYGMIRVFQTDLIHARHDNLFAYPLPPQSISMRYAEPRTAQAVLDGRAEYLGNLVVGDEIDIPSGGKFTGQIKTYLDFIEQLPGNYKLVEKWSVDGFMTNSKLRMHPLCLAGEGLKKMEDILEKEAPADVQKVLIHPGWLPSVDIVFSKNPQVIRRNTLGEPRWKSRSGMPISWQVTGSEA

[2] = test system: T2, LPG10138 (Bacillus megaterium)
T2 sequence: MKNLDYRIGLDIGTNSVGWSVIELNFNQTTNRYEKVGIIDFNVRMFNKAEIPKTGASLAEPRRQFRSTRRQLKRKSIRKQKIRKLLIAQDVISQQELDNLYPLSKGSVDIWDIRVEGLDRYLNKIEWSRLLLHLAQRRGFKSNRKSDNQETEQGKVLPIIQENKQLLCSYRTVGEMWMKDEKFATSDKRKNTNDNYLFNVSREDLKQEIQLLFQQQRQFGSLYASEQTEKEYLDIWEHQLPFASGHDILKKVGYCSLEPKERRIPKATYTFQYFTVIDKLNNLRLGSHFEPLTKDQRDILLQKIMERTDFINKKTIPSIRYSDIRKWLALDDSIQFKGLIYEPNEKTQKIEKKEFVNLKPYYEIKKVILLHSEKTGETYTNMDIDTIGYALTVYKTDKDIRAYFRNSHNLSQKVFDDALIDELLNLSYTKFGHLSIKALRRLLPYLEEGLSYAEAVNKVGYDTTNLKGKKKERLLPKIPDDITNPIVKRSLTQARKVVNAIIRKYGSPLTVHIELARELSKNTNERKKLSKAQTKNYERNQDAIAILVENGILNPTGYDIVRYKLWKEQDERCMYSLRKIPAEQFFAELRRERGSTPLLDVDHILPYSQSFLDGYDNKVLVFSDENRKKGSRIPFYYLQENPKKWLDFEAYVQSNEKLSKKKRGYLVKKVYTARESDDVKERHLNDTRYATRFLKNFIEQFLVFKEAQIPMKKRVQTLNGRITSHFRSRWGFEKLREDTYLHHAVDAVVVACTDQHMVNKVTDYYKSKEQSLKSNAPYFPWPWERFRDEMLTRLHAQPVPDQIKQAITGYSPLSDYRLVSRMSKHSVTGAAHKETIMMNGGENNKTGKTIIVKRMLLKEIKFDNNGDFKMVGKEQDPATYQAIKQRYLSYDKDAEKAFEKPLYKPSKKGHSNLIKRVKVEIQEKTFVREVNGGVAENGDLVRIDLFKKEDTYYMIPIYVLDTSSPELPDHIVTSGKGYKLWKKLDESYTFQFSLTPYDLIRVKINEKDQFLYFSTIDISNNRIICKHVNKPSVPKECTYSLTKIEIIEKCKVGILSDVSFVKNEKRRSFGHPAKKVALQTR

[3] = test system: T3, LPG10136 (Bacillus endophyticus); settings: PAM NNNNCC
T3 sequence: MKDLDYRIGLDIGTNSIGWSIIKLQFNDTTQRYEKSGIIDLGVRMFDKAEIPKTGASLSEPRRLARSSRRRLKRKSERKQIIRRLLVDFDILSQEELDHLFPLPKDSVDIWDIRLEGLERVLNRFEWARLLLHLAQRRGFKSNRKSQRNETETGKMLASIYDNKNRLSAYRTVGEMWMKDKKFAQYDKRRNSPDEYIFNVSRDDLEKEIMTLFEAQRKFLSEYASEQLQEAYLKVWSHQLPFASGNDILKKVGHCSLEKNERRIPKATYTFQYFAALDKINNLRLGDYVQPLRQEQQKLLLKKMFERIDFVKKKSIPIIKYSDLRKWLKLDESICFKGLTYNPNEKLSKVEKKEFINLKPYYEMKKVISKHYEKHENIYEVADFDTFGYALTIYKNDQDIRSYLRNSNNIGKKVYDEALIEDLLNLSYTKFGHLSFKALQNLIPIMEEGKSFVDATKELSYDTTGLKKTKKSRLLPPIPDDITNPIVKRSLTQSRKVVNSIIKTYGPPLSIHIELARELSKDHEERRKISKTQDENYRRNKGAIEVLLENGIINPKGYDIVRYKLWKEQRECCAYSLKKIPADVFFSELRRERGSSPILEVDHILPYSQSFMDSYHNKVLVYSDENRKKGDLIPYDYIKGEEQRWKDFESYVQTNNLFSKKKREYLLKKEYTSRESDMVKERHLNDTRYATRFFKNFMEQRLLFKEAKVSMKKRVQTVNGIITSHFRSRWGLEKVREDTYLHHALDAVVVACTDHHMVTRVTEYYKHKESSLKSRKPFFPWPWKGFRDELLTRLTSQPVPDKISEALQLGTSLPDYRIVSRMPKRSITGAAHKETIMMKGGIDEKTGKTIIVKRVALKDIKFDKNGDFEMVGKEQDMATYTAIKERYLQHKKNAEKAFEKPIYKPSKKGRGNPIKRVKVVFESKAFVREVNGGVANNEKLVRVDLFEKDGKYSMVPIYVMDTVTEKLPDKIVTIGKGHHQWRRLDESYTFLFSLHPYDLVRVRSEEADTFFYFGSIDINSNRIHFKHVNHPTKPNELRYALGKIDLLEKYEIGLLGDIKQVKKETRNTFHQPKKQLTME

GCUGAGAAUUAGCAUCCUUCAAAGGAAGAAGCUAAUUCUCAGUAAGUACAGCAAUUAAUAGCUGUAUCUGAAUGCUAAGCGGUUAGCCGCAGGGGAGAGCUUCGGCUCUCCCCGUUCUUUU / GATATAGACGTTGTGGCTGTTGTAGTAGGAAACC / GGTTTCCTACTACAACAGCCACAACGTCTATATC [LPG10146 sgRNA L2 ; Library 2 target AGGAAACC]
activity (% target strand cleaved) [1]: 48.9

GCUGAGAAUUAGCAUCCUUCAAAGGAAGAAGCUAAUUCUCAGUAAGUACAGCAAUUAAUAGCUGUAUCUGAAUGCUAAGCGGUUAGCCGCAGGGGAGAGCUUCGGCUCUCCCCGUUCUUUU / GATATAGACGTTGTGGCTGTTGTAGTGAGTAACC / GGTTACTCACTACAACAGCCACAACGTCTATATC [LPG10146 sgRNA L2 ; Library 2 target GAGTAACC]
activity (% target strand cleaved) [1]: 57.7

GCUGAGAAUUAGCAUCCUUCAAAGGAAGAAGCUAAUUCUCAGUAAGUACAGCAAUUAAUAGCUGUAUCUGAAUGCUAAGCGGUUAGCCGCAGGGGAGAGCUUCGGCUCUCCCCGUUCUUUU / GGACAGCAGCTTCCTATATCTCGTACGGATAACC / GGTTATCCGTACGAGATATAGGAAGCTGCTGTCC [LPG10146 sgRNA L1 ; Library 1 target GGATAACC]
activity (% target strand cleaved) [1]: 0

GUCAUAGUCCCAUCAUAUCCAUUGCAAAGGCAAUGGAUAUGAUGUUUCUAUGAUAAGGGCUCUCUAAGAGAGACCUGUGGCGUUGGGGAUCGCCUGCCCGUUUCGACGGGUGUCUCCCCAUUU / GATATAGACGTTGTGGCTGTTGTAGTAGGAATTC / GAATTCCTACTACAACAGCCACAACGTCTATATC [LPG10138 sgRNA L2 ; Library 2 target AGGAATTC]
activity (% target strand cleaved) ([2]; PAM context AGGAATTC): 0

GUCAUAGUCCCAUCAUAUCCAUUGCAAAGGCAAUGGAUAUGAUGUUUCUAUGAUAAGGGCUCUCUAAGAGAGACCUGUGGCGUUGGGGAUCGCCUGCCCGUUUCGACGGGUGUCUCCCCAUUU / GATATAGACGTTGTGGCTGTTGTAGTAGGACTTC / GAAGTCCTACTACAACAGCCACAACGTCTATATC [LPG10138 sgRNA L2 ; Library 2 target AGGACTTC]
activity (% target strand cleaved) ([2]; PAM SEQ ID 75): 18

GUCAUAGUCCCAUCAUAUCCAUUGCAAAGGCAAUGGAUAUGAUGUUUCUAUGAUAAGGGCUCUCUAAGAGAGACCUGUGGCGUUGGGGAUCGCCUGCCCGUUUCGACGGGUGUCUCCCCAUUU / GGACAGCAGCTTCCTATATCTCGTACAGGACTTC / GAAGTCCTGTACGAGATATAGGAAGCTGCTGTCC [LPG10138 sgRNA L1 ; Library 1 target AGGACTTC]
activity (% target strand cleaved) ([2]; PAM SEQ ID 75): 5.5

GUCAUAGUUCCACUAAAGCCAUUAAAGAAUGGCUUUGAUGUUUCUAUGAUAAGGGUUUCGACCCGUGGCGUUGGGGAUCGCCUGCCCAUUUCGAUGGGCGUCUCCCCAUUU / GATATAGACGTTGTGGCTGTTGTAGTAGGACCTC / GAGGTCCTACTACAACAGCCACAACGTCTATATC [LPG10136 sgRNA L2 ; Library 2 target AGGACCTC]
activity (% target strand cleaved) ([3]; 37C 120 min): 30.9

GUCAUAGUUCCACUAAAGCCAUUAAAGAAUGGCUUUGAUGUUUCUAUGAUAAGGGUUUCGACCCGUGGCGUUGGGGAUCGCCUGCCCAUUUCGAUGGGCGUCUCCCCAUUU / GATATAGACGTTGTGGCTGTTGTAGTAGGACTTC / GAAGTCCTACTACAACAGCCACAACGTCTATATC [LPG10136 sgRNA L2 ; Library 2 target AGGACTTC]
activity (% target strand cleaved) ([3]; suboptimal PAM context): 11.3

GUCAUAGUUCCACUAAAGCCAUUAAAGAAUGGCUUUGAUGUUUCUAUGAUAAGGGUUUCGACCCGUGGCGUUGGGGAUCGCCUGCCCAUUUCGAUGGGCGUCUCCCCAUUU / GGACAGCAGCTTCCTATATCTCGTACAGGACCTC / GAGGTCCTGTACGAGATATAGGAAGCTGCTGTCC [LPG10136 sgRNA L1 ; Library 1 target AGGACCTC]
activity (% target strand cleaved) ([3]; 37C 120 min): 5
